Measurements taken from patent publication US20200231681A1 (CHONG KUN DANG PHARMACEUTICAL, published 2020).

Tests used:
[1] = target: T1, human c-Met ECD (ACROBiosystems, MET-H5227) (human, UniProt P08581 25-932); assay: SPR (BIAcore), antibody captured by anti-human IgG Fc, antigen as analyte, 1:1 Langmuir
T1 construct: extracellular domain; Bought protein
Method: (§1) The antibodies were diluted in HBS-EP buffer (0.01 M HEPES pH 7.4, 0.15 M NaCl, 3 mM EDTA and 0.005% (v/v) Surfactant P20) at a concentration of 1-2 μg/ml, after which the resulting antibodies were injected into a CM5 chip with an anti-human Ig Fc fixed thereto at a flow rate of 30 μl/min for 10-120 seconds, and then captured in a range of 150-200 RU. Each antigen was used after being diluted at 10, 5, 2.5, 1.25, 0.625, 0.3125 and 0.15625 nM, after which the resulting antigens were sequentially injected from a lower concentration. Then, the resulting antigens were injected at a flow rate of 30 μl/min for 5 minutes to carry out binding, after which a running buffer was injected thereinto for 10-15 minutes to carry out a dissociation. 15 μl of 10 mM Glycine-HCl (pH 1.5) was used to revive the chip.

[2] = target: T2, cynomolgus monkey c-Met ECD (SiNo. Biological, 90304-CO8H) (cynomolgus monkey, UniProt A0A2K5UM36 25-932); assay: as above
T2 construct: not shown: The vendor's tag
Method: as §1

[3] = target: T3, human EGFR ECD strep (ACROBiosystems, EGR-H5285) (human, UniProt P00533 25-645); assay: as above
T3 construct: extracellular domain; Bought protein
Method: as §1

[4] = target: T4, cynomolgus monkey EGFR ECD (SiNo. Biological, 90285-008B) (cynomolgus monkey); assay: as above
T4 construct: extracellular domain
Method: as §1

[5] = target: T5, mouse EGFR (SiNo. Biological Inc, 51091-M08H) (mouse, UniProt Q01279 25-647); assay: ELISA, antigen coated at 2 µg/ml, antibody 6.4 pM to 100 nM, anti-human IgG F(ab')2-HRP, TMB, O.D. at 450 nm [panel Mouse EGFR]
T5 construct: extracellular domain
Method: (§2) Particularly, mouse c-Met (SiNo. Biological Inc, 50622-M08H), cynomolgus monkey c-Met (SiNo. Biological Inc, 90304-CO8H), human c-Met (R&D Systems, 358-MT), mouse EGFR (SiNo. Biological Inc, 51091-M08H), cynomolgus monkey EGFR (SiNo. Biological, 90285-008B) and human EGFR (Abcam, 155639) antigens were all divided into a 96-well plate at a concentration of 2 μg/ml, after which the resulting plate was reacted at 4° C. overnight.
(§3) Color development was made by using TMB (Sigma, T4444) solution, wherein its value was measured at an optical density of 450 nm and its ELISA results are shown in FIG. 9.

[6] = target: T6, mouse c-Met (SiNo. Biological Inc, 50622-M08H) (mouse, UniProt P16056 25-931); assay: ELISA, antigen coated at 2 µg/ml, antibody 6.4 pM to 100 nM, anti-human IgG F(ab')2-HRP, TMB, O.D. at 450 nm [panel Mouse cMet]
T6 construct: extracellular domain
Method: as §2, §3

| Kd [1] [nM] | koff [1] [s⁻¹] | kon [1] [M⁻¹ s⁻¹] | Kd [2] [nM] | koff [2] [s⁻¹] | kon [2] [M⁻¹ s⁻¹] | Kd [3] [nM] | koff [3] [s⁻¹] | kon [3] [M⁻¹ s⁻¹] | Kd [4] [nM] | koff [4] [s⁻¹] | kon [4] [M⁻¹ s⁻¹] | binding result [5] | binding result [6] | Binder |
| --- | --- | --- | --- | --- | --- | --- | --- | --- | --- | --- | --- | --- | --- | --- |
| 0.0999 | 8.3e-05 | 831000 | – | – | – | – | – | – | – | – | – | – | – | hu8C4 AH71 (antibody, V domains shown) VH: EVQLVESGGGLVQPGGSLRLSCAASGYTFSDYYINWVRQAPGKGLEWIGEIFPGWGNTHFSARFKGRATLSADKSKNTAYLQMNSLRAEDTAVYYCAGQDYGFLYWGQGTLVTVSS VL: DIQMTQSPSSLSASVGDRVTITCGASENIYGALNWYQQKPGKAPKLLIYGATNLADGVPSRFSGSGSGRDFTFTISSLQPEDIATYYCQNVLSSPYTFGQGTKVEIK |
| 0.278 | 0.000204 | 734000 | 0.434 | 0.000337 | 777000 | 1.62 | 0.000126 | 77800 | 0.894 | 0.000127 | 142000 | no binding (tested: 100 nM) | no binding (tested: 100 nM) | hu8C4 × Vectibix scFv bispecific antibody (bispecific antibody, human IgG2) heavy: not shown VL: DIQMTQSPSSLSASVGDRVTITCGASENIYGALNWYQQKPGKAPKLLIYGATNLADGVPSRFSGSGSGRDFTFTISSLQPEDIATYYCQNVLSSPYTFGQGTKVEIK |
